{"source": "the DeepSol protein solubility set", "data": [{"test": "soluble on expression in E. coli; label from the status in PepcDB or PDB records", "values": [{"sequence": "MSDNKESKKISIEIDGKDYQALPNQSIIEVADANGIYIPRFCYHKKLSVAANCRMCLVDVEGARRASPACATPVMDGMKVKTRSEEALQMQKDVMEFLLINHPLDCPICDQGGECELQDIAMGYGNTTSEYLESKRTVEDPELGPLVATDMTRCILCTRCVRFGEEIAGVKELGVMGRGDHSAISTYISGEMVDSEISANIIDLCPVGALTSKPFRFKARSWELKQFPTLSAGDALATEINAHIYQNKLVRVVPRENDITGTWIADRDRFEYTGLYSQDRIQQPMIKKTGDWVDLSWEEALDFVKVAIQKTIEKDGADAISAIVSETATSEEMYLTKKLLAAVGSVNIDARVRQYADIPGISAGKGLSCSLEDIRESDFILVFGSNIRKEYPLVNIAIKDAVEKNAAKAVAWNVCDYNFNYDIKQVRLAADNIQYIALSLLKAIFVRANLPYGDLDEILRKVDPAAEVRDVADRIVAAKAPKIIIGQDIVNTSGFETVFSILDVLEKVTSVRGGVLATNVNSVAADRIFSSSKSKFSTYKCLNGRTNTKLLLTVHTELAKDSLYGEQKLRNALENIDIVVSFTAFADKFTKDTADIILPIATHYETSGSFVDLFGNRKEFKQVVKPYAGNKELWRVLRVLGNLLELEGFDYNSIAEVTNDAYATRARVGVNHVTQILNANLDYQKEVAFVASNSMYSTTSLLRRAEPLQKTTDAKRFAGVRISQELADEIGLKGQSGVIKIYNIDNEINPEVVVDPSLQAKNIMLPRALFKDFLSSDNISIKLVEEER", "soluble on expression in E. coli": "not soluble"}, {"sequence": "MGSDKIHHHHHHMEAVKTGIEGFDDIFGGFYRGQIILIAGNPGSGKTTFCAKFLYEGARRFGENGLYISIGESKEEFYEYMKKLGMDFEKLEKTGSFKYVEMLAPTSEDALMQLSRELTKNALELKATRIVIDSISPILSMNPETARAILHNALKTISRELKSVVLMTEEMPIGETRIGQGIEEFVVDGVIVLRLEVPEAGAPVRTMSVLKLRGKPLDRAVYNFEIGPPSGVRVLMHGIEELESNIDFNNKIATGIDGFDELLGGGIIRGTATAFVGPSGGGKTVLMLSAAANVAINGENVTYISFEEPRQQIEETLKFLGYGEVEGLEILSLNPRMISLRALYDILSKTVLDHRTMLFIDGLNAIRREFGEAFHRVVRDVVFQMKKNGITVVISLIGGTIKETLLSTIVDNVVELRVVEKDGELRREIAVRKARMSRASNEVKRLVFDGKPAVR", "soluble on expression in E. coli": "not soluble"}, {"sequence": "MSLKKYQLVIVGYGGMGSYHVTLASAADNLEVHGVFDILAEKREAAAQKGLKIYESYEAVLADEKVDAVLIATPNDSHKELAISALEAGKHVVCEKPVTMTSEDLLAIMDVAKRVNKHFMVHQNRRWDEDFLIIKEMFEQKTIGEMFHLESRVHGANGIPGDWRHLKAHGGGMVLDWGVHLLDQLLFLVDSNVKSVSANLSFALGDEVDDGFVTFITFENGITAQIEVGTTNFIKLPRWYVKGTEGTGIIHDWDLSGEIVKPTALAKTSEPTPIKAGQGLTKTMAPPSEEATNTLSLPAPAKLAPSFYNNFVDVLNNTSEPIVQNEEVYQVLKLIEAIFEAAETNRTVHSIEGHHHHHH", "soluble on expression in E. coli": "soluble"}, {"sequence": "MSLKYAVLGATGLLGHHAARAIRAAGHDLVLVHRPSSQIQRLAYLEPECRVAEMLDHAGLERALRGLDGVIFSAGYYPSRPRRWQEEVASALGQTNPFYAACLQARVPRILYVGSAYAMPRHPQGLPGHEGLFYDSLPSGKSSYVLCKWALDEQAREQARNGLPVVIGIPGMVLGELDIGPTTGRVITAIGNGEMTHYVAGQRNVIDAAEAGRGLLMALERGRIGERYLLTGHNLEMADLTRRIAELLGQPAPQPMSMAMARALATLGRLRYRVSGQLPLLDETAIEVMAGGQFLDGRKAREELGFFSTTALDDTLLRAIDWFRDNGYFNTEGHHHHHH", "soluble on expression in E. coli": "soluble"}, {"sequence": "STGVPATDLQQSIMKNVQPIELYFDNELVTDCSALGVYDNSYLVPLHLFEFDFDTIVLGGRHYKKAECEKVEFELEVNGDMVSSDACLLRVPSGPKVRNIVHLFTNEIELKKMTQVTGIMNSPHQARTVFFGSFLTVRKSILTSDGTVMPNVLSYAAQTSRGYCGAAIVAGSPARIIGIHSAGTGSVAFCSLVSKDALERTLPQKQ", "soluble on expression in E. coli": "not soluble"}, {"sequence": "MGSDKIHHHHHHMSSSGKVIVVGAGIVGLATAWHLQEHGFEVSVLDRDGVAAGSSWGNAGWLAPAKTIPLSEPGLWTYGPKELFNPVSPMHMPLRVDPKLWLFLAQFMAQAFQRKWDSTMADLTEIDKVALEAFDELSIGGVEGLTHEGPFVIGFEEERQSAGFRKEIDGVSRHGQKVEMSRLENPQELAPMLNEQIQVAYRLEGQRFIEPGPYVQSLADAVVKRGGVIRAGAEVVHVAKGDRPAVILADGSREEADKVVVATGAWLPGLTREYGVKTLVQAGRGYSFSVATDIPAKHSVYLPHHRMACTPYEGRFRIAGTMEFRGPDEPFQQGRVDAIVSQAKKVMRGIDFNDRQDEWVGSRPVTPDGRPLIGQTKAENIYVAGGHGMWGVVLGPATGKYLAELMATGNTNPIIKPFDPLR", "soluble on expression in E. coli": "not soluble"}, {"sequence": "MTISTTSTPHDAVFKSFLRHPDTARNFINIHLPAPLRKLCDLTTLKLEPNSFIDEDLRQYYSDLLWSVKTQEGVGYIYVVIEHQSKPEELMAFRMMRYSIAAMQNHLDAGYKELPLVIPMLFYHGCRSPYPYSLCWLDEFAEPAIARKIYSSAFPLVDITVVPDDEIMQHRKMALLELIQKHIRQRDLLGLVDQIVSLLVTGNTNDRQLKALFNYVLQTGDAQRFRAFIGEITERAPQEKEKLMTIADRLREEGAMQGKHEEALRIAQEMLDRGLDRELVMMVTRLSPDDLIAQSH", "soluble on expression in E. coli": "not soluble"}, {"sequence": "AEPDTESSELSGSVSYRIVSVVNTITASHWDEKELLDKAELIDYPVRKCAHMSEYAILTLLGFLTFSFLHGRGRFLVPIGVTFLYACTDEFHQLFVPGRAGR", "soluble on expression in E. coli": "not soluble"}, {"sequence": "MTFRNCVAVDLGASSGRVMLARYERECRSLTLREIHRFNNGLHSQNGYVTWDVDSLESAIRLGLNKVCAAGIAIDSIGIDTWGVDFVLLDQQGQRVGLPVAYRDSRTNGLMAQAQQQLGKRDIYQRSGIQFLPFNTLYQLRALTEQQPELIPHIAHALLMPDYFSYRLTGKMNWEYTNATTTQLVNINSDDWDESLLAWSGANKAWFGRPTHPGNVIGHWICPQGNEIPVVAVASHDTASAVIASPLNGSRAAYLSSGTWSLMGFESQTPFTNDTALAANITNEGGAEGRYRVLKNIMGLWLLQRVLQERQINDLPALIAATQALPACRFIINPNDDRFINPDEMCSEIQAACREMAQPIPESDAELARCIFDSLALLYADVLHELAQLRGEDFSQLHIVGGGCQNTLLNQLCADACGIRVIAGPVEASTLGNIGIQLMTLDELNNVDDFRQVVSTTANLTTFTPNPDSEIAHYVALIHSTRQTKELCA", "soluble on expression in E. coli": "soluble"}, {"sequence": "SASGDFCSPGEGMEILQQVCSKQLPPCNLSKEDLLQNPYFSKLLLNLSQHVDESGLSLTLAKEQAQAWKEVRLHKTTWLRSEILHRVIQELLVDYYVKIQDTNVTSEDKKFHETLEQRLLVTELMRLLGPSQEREIPPLLGLEKADLLELMPLSEDFVWMRARLQQEVEEQLKKKCFTLLCYYDPNSDADSETVKAAKVWKLAEVLVGEQQQCQDAKSQQKEQMLLLEKKSAAYSQVLLRCLTLLQRLLQEHRLKTQSELDRINAQYLEVKCGAMILKLRMEELKILSDTYTVEKVEVHRLIRDRLEGAIHLQEQDMENSRQVLNSYEVLGEEFDRLVKEYTVLKQATENKRWALQEFSKVYR", "soluble on expression in E. coli": "not soluble"}, {"sequence": "MSLPVKNLRHLPKAHLHLHLEGAMRPATLTEFCERYKIKRPSDTRGKQFSNFAAFNEVYRAASDSIRTRQDLARVIQEVAEDAAKDGATWIEPAFDADRYTVLRADKSLRLFETPYEGWLFALKAARNASEKTGVGISFISAIDRTRPIDQANERAKLTTNLIASQKHQITAKNINGGEPYAGIIGLGLHGNEEGYPPEIFAEAFQIVTKKTEALSIPHAGEIAPTPGKGPESVEKAIDILSASRIQHGVLAIQDEVLIEKIKEKNICLDVCPSSNIQLSVFPNIQAHPLPLLIESGVSCSLGSDDPLLFGPSLLDEFELCREQMRLSDNTLAQLARNSFKYSGAPKKIVEQGLRDIDTWLNEGHHHHHH", "soluble on expression in E. coli": "soluble"}, {"sequence": "MQSATDVAEYCKYDGFDGLKRAISLSDEEILNELDIAHLRGRGGAAYPLGKKWRHLYHAKGTTKYIVCNADEGEPGTFKDKVLLSEDPLSVIEGMIIAGYLFSAKAGYIYMRGEYRRIQKTFQEALDNARQAGFLGENILGIEGFNYDITIISGAGAYICGENSALLNSIEGKTGRPRVKPPHLADVGLYLQPTLVNNVESFASVPVILREGGQAFLEMGTADGGGTKLICLSGHIKNRGLYEVNLGTPLEEIIYGEQYGGGSATGRALKFIHFGGQSGPIGAVATLRDCLYSYEDLWAHDLSVGSGAIVVMDDSVNVVDYLVHVAAFFAHESCGKCTPCRLGTTRILELLSKFNRNEATASDLPRLEKMLTHVTRLSACGLGQSVANPMKSALALFPEEFETTAETEIYATSKGGWLEHHHHHH", "soluble on expression in E. coli": "not soluble"}, {"sequence": "MDLFPDEVYVFTPKGHIMELPKGATPVDFAYTVHSGVGNSCVAAKVNRRLVPLSIPLSNGQTVEIITAPGAHPNPAWLEHHHHHH", "soluble on expression in E. coli": "not soluble"}, {"sequence": "MIVNAFYNEKGVGDTLLIETGEVTFENREWERRGDVARIFDRETKQVAGFNIFNSSKYFDITANGKVDLTEELVALMNQVIEKAGFEPEIVADLTPKFVVGYVESKEKHPNADKLNVCQINVGGEVLQIVCGAPNIDAGQKVVVAKIGAVMPSGLIIKPSNLRGEDSFGMVCAARELAIPNAPTEKGILVLEDSATPGEEFPVNFLEHHHHHH", "soluble on expression in E. coli": "not soluble"}, {"sequence": "MSLPIDEHVNAVKTVVVPAAGLGTRFLPATKTVPKELLPVVDTPGIELIAAEAAELGATRLAIITAPNKAGVLAHFERSSELEETLMERGKTDQVEIIRRAADLIKAVPVTQDKPLGLGHAVGLAESVLDDDEDVVAVMLPDDLVLPTGVMERMAQVRAEFGGSVLCAVEVSEADVSKYGIFEIEADTKDSDVKKVKGMVEKPAIEDAPSRLAATGRYLLDRKIFDALRRITPGAGGELQLTDAIDLLIDEGHPVHIVIHQGKRHDLGNPGGYIPACVDFGLSHPVYGAQLKDAIKQILAEHEAAERIADDSQVKLEHHHHHH", "soluble on expression in E. coli": "soluble"}, {"sequence": "MGSDKIHHHHHHMWIRTHYFMAKSIHSYIKEKYKVSLQLDQLQYGSIKPDLLPKYWEGSHYYESCSGTWLAEVAQLLGEQKKRSIRNFSDKLGVILHFTADFFCSAHNLPNLRENMWEHLLYELKLDVAFRHFESFRGIQCLNYDDPYDLLTCCRQDYLSGQPSLERDIHYIYAASLSITDLLVTQALLPVAKPLMLLKDLPESS", "soluble on expression in E. coli": "not soluble"}, {"sequence": "MAHHHHHHMHNGVKTFHRVGFVGSKWKEVKNRGIARFIEAFAADTATALNVTPQAVHIADYAVADDIVVDFYVTHPGTDSAEVIDGKLEQFDYQRVWDLYGIPSEVDEQQRVVPCVMKCSNASRRTSPSSTCRLRMPDTNSVSQVDSFCPRCQRRLSSKQEFLQPDESSGWHPQPMHSHTSSISDAVRTALMEDSYSAIRKPSSTPPLPHLAHRYAPHQKWKGKLRSSRARIKRVVYHSCASHR", "soluble on expression in E. coli": "not soluble"}, {"sequence": "MSLKSFNEIIMKVKSKEMKKVAVAVAQDEPVLEAVRDAKKNGIADAILVGDHDEIVSIALKIGMDVNDFEIVNEPNVKKAALKAVELVSTGKADMVMKGLVNTATFLRSVLNKEVGLRTGKTMSHVAVFETEKFDRLLFLTDVAFNTYPELKEKIDIVNNSVKVAHAIGIENPKVAPICAVEVINPKMPSTLDAAMLSKMSDRGQIKGCVVDGPLALDIALSEEAAHHKGVTGEVAGKADIFLMPNIETGNVMYKTLTYTTDSKNGGILVGTSAPVVLTSRADSHETKMNSIALAALVAGNKEGHHHHHH", "soluble on expression in E. coli": "soluble"}, {"sequence": "MGSDKIHHHHHHMKIKKGDTEAEILTKGAYLYSFKIGNRDMILRGDLERPTRGGMAILIPFANRVKNAEYVFEGVKYTLPQNREGNAIHGLVMDKEFNVIGKSEDSISLQYILEHEGYPSKLDCVITYKVFKYGLRIKIVVRNVGNKRAPLTVGAHPYFITADDWRIVVEKEESIKKCISFNKIPTGELVKTKLEHTDYDDCFLISGGIQLHSSYSKVRITRRNMPFVQIYTGVRGSIAIEPMSGAPDAYHNGLGLKILEPNESSYFAFAFRFH", "soluble on expression in E. coli": "not soluble"}]}]}
